{"source": "patent US20090312252A1", "about": "“Antimicrobial Activity in Variants of Lacritin” (priority 2006, published 2009)", "molecules": {"B1": {"name": "N-35: mature lacritin with 35 amino acids removed from the N-terminal (protein, listed as Homo sapiens)", "chain": "METTTTAQETSAAAVQGTAKVTSSRQELNPLKSIVEKSILLTEQALAKAGKGMHGGVPGGKQFIENGSEFAQKLLKKFSLLKPWA"}, "B2": {"name": "N-45: mature lacritin with 45 amino acids removed from the N-terminal (protein, listed as Homo sapiens)", "chain": "MAAAVQGTAKVTSSRQELNPLKSIVEKSILLTEQALAKAGKGMHGGVPGGKQFIENGSEFAQKLLKKFSLLKPWA"}, "B3": {"name": "Lacritin: full length recombinant mature human lacritin without signal peptide, 119 amino acids, SEQ ID NO:27 (protein, listed as Homo sapiens)", "chain": "EDASSDSTGADPAQEAGTSKPNEEISGPAEPASPPETTTTAQETSAAAVQGTAKVTSSRQELNPLKSIVEKSILLTEQALAKAGKGMHGGVPGGKQFIENGSEFAQKLLKKFSLLKPWA"}}, "key": {"[1]": {"tested_on": "E. coli (ATCC #10536)", "type": "cell-based", "details": "colony forming unit assay, phosphate buffer, 37°C; by extrapolation of concentration curves", "procedure": "(§1) Antimicrobial Assays. The antimicrobial activities were tested using a colony forming unit assay. E. coli (ATCC #10536) was grown in LB medium at 37° C. to an OD600 of 0.5. The cells were washed 3 times in phosphate buffer (pH 7.2) and resuspended in 1 ml of the same buffer. The cells were then diluted 1:100 using two 10 fold serial dilutions. Following dilutions, 50 μl of cells were incubated with 100 μl of sample protein and 350 μl of phosphate buffer at 37° C. In place of sample protein, 100 μl of 10 mM phosphate buffered saline (pH 7.4) was used as the control sample. Following incubation, the cells were diluted 1:10 before plating 100 μl-200 μl in quadruplicates. The plates were incubated overnight at 37° C. and colony forming units were counted. The percentage of cell death was expressed using the following equation, [1-(cells surviving peptide)/(average colonies counted from PBS control)]×100%. The LC50 is defined as the lethal concentration of peptide required to kill 50 percent of the present bacteria and was determined for each Lacritin variant by extrapolation of concentration curves.\nLethal concentrations (μg/ml) of lacritin constructs required to kill 50 percent of E. coli in the antimicrobial assay. Lacritin is full length mature lacritin without signal peptide. N-XX denotes the number of amino acids removed from the N-terminal of mature lacritin and C-XX denotes the number of amino acids removed from the C-terminal of mature lacritin."}, "[2]": {"tested_on": "E. coli", "test": "Antimicrobial activity assay, colony forming units after incubation with E. coli (Example 2, FIGS. 4 and 5)", "type": "cell-based", "details": "for % of the bacteria killed: four hours incubation; for CFU as % of the control / average colony forming units: four hours incubation at 37°C", "procedure": "Purified recombinant lacritin variant proteins were assayed for antimicrobial activity by standard methods that involves an incubation period with actively growing bacteria and the protein of interest followed by plating on agar plates supplemented with growth media. The agar plates are incubated overnight and individual colonies are counted and expressed as Colony Forming Units (CFUs). The number of CFUs can be compared to the same bacteria incubated without protein.\nE. coli at exponential growth (OD600=0.5) were washed twice in Phosphate Buffer (PB) diluted to a concentration of 1×10^6 cells/ml in PB and incubated with PB (no protein) or test proteins at 37° C. Samples were diluted and plated in triplicate on LB plates after four hours of incubation. Plates were grown at 37° C. overnight and counted. Colony counts were averaged and plotted as CFU/ml×10^3. The incubation volume was 0.5 ml at 25 mM NaCl.\nC-25 was tested at a concentration of 53 μg/ml and N-71 was tested at various concentrations in μg/ml as shown in parentheses. pLAC is full length recombinant mature lacritin, and was tested at a concentration of 46 μg/ml. Bacteria incubated with buffer alone (the control) produced an average of 77×10^3 CFU/ml. Incubation with the lacritin variant C-25 produced an average of 79×10^3 or 103% of the control. […] The full-length recombinant lacritin protein (PLAC) produced an average of 38×10^3 CFU/ml or 49% of the control. The variant protein N-71 produced a concentration dependent antimicrobial activity that was less than 1% of the control at a concentration of 28 μg/ml.\nThe variant lacritin proteins were tested at the concentrations shown in parentheses in μg/ml. Bacteria incubated with buffer alone (the PB control) produced an average of 161×10^3 CFU/ml. Incubation with the lacritin variant N-24 produced an average of 108×10^3 or […] of the control. […] The variant protein N-35 produced an average of 25×10^3 CFU/ml or 16% of the control and the variant N-45 produced an average of 42×10^3 CFU/ml or 26% of the control. These variants are active in antimicrobial activity killing 84% and 74% respectively of the bacteria under the conditions tested. The variant N-55 produced an average of 2×10^3 CPU/ml or 0.01% of the control, the variant N-65 produced an average of 6×10^3 CFU/ml or 0.04% of the control, and the variant N-71 produced an average of 1×10^3 CFU/ml or 0.01% of the control."}, "[3]": {"tested_on": "Pseudomonas aeruginosa", "test": "Colony forming unit antimicrobial assay against pathogenic bacteria (Table 3)", "type": "cell-based", "details": "10 mM phosphate buffer, 3 hours", "procedure": "as §1\n(§2) Purified lacritin variant proteins at the concentrations shown were incubated with selected pathogenic bacteria in 10 mM phosphate buffer for 3 hours as described in the antimicrobial assay. The total number of colonies were counted and the percent cell death determined using [1-(colonies surviving peptide incubation)/(colony count from PBS control)]×100. N-XX denotes the number of amino acids removed from the N-terminal of mature lacritin."}, "[4]": {"tested_on": "Staphylococcus epidermidis", "test": "Colony forming unit antimicrobial assay against pathogenic bacteria (Table 3)", "type": "cell-based", "details": "37.6 μg/ml; 10 mM phosphate buffer, 3 hours", "procedure": "as §1, §2"}, "[5]": {"tested_on": "Staphylococcus aureus", "test": "Colony forming unit antimicrobial assay against pathogenic bacteria (Table 3)", "type": "cell-based", "details": "26.3 μg/ml; 10 mM phosphate buffer, 3 hours", "procedure": "as §1, §2"}, "[6]": {"tested_on": "E. coli ML-35", "test": "Inner membrane permeabilization, ONPG conversion by cytoplasmic β-galactosidase (FIG. 11)", "type": "cell-based", "details": "30 μg/ml; room temperature, 18 hours", "procedure": "Inner Membrane Permeabilization. To examine the affect of Lacritin constructs on the inner membrane of gram negative bacteria, an enzymatic assay was conducted using a strain of permease-deficient E. coli, designated E. coli ML-35 (ATCC #43827) which also constitutively produces cytoplasmic βeta-galactosidase. E. coli ML-35 were grown in LB medium for 20 hours at 37° C. as a saturated overnight and then diluted with LB to an absorbance OD600 of 0.5. The cells were washed 3 times in 10 mM sodium phosphate buffer-10 mM NaCl (pH 7.2) and resuspended in 1 ml of the same buffer. The cells were then diluted 1:100 in 10 mM sodium phosphate buffer using two serial 10-fold dilutions. 70 μl of phosphate buffer, 30 μl of 30 mM βeta-galactosidase substrate ONPG (o-nitrophenyl-β-D-galactopyranoside) in 20 mM sodium phosphate buffer, 100 μl of cells in 10 mM sodium phosphate buffer and 50 μl of peptide sample were added to microtiter plate wells in duplicate. The production of ONP (o-nitrophenyl) from ONPG was measured over time using a spectrophotometer set at a wavelength of 415 nm.\nMature Lacritin (pLac) and various constructs of Lacritin were incubated with permease-deficient E. coli ML-35 at room temperature for 18 hours. The conversion of ONPG (o-nitrophenyl-β-D-galactopyranoside) to ONP (o-nitrophenyl) by cytoplasmic β-galactosidase was measured by a spectrophotometer at 415 nm. […]"}, "[7]": {"details": "topical application to the eyes of rabbits; cited from earlier work"}, "[8]": {"tested_on": "human salivary gland cells", "details": "recombinant lacritin produced in bacteria; cultured human salivary gland cells; cited from earlier work"}, "[9]": {"details": "FIG. 5, concentrations only shown in the figure"}, "[10]": {"details": "FIG. 5, concentrations only shown in the figure, PB control 161×10^3 CFU/ml"}}, "note": "Where no end group is shown, it is not given here.", "data": [{"molecule": "N-72: mature lacritin with 72 amino acids removed from the N-terminal (ILLTEQALAKAGKGMHGGVPGGKQFIENGSEFAQKLLKKFSLLKPWA; UniProt Q9GZZ8 92-138, looked up, fragment) [Construct N-72]", "values": [{"measurement": "LC50 (lethal concentration required to kill 50 percent of E. coli)", "setting": "[1]", "result": 7.5, "unit": "mg/L"}]}, {"molecule": "N-73: mature lacritin with 73 amino acids removed from the N-terminal (LLTEQALAKAGKGMHGGVPGGKQFIENGSEFAQKLLKKFSLLKPWA; UniProt Q9GZZ8 93-138, looked up, fragment) [Construct N-73]", "values": [{"measurement": "LC50 (lethal concentration required to kill 50 percent of E. coli)", "setting": "[1]", "result": 8.0, "unit": "mg/L"}]}, {"molecule": "MSILLTEQALAKAGKGMHGGVPGGKQFIENGSEFAQKLLKKFSLLKPWA [Construct N-71]", "values": [{"measurement": "LC50 (lethal concentration required to kill 50 percent of E. coli)", "setting": "[1]", "result": 8.0, "unit": "mg/L"}]}, {"molecule": "N-80: mature lacritin with 80 amino acids removed from the N-terminal (AKAGKGMHGGVPGGKQFIENGSEFAQKLLKKFSLLKPWA; UniProt Q9GZZ8 100-138, looked up, fragment) [Construct N-80]", "values": [{"measurement": "LC50 (lethal concentration required to kill 50 percent of E. coli)", "setting": "[1]", "result": "Not Active"}]}, {"molecule": "MKSIVEKSILLTEQALAKAGKGMHGGVPGGKQFIENGSEFAQKLLKKFSLLKPWA [Construct N-65]", "values": [{"measurement": "LC50 (lethal concentration required to kill 50 percent of E. coli)", "setting": "[1]", "result": 5.5, "unit": "mg/L"}]}, {"molecule": "B1", "values": [{"measurement": "% of the bacteria killed", "setting": "[2]; [9]", "result": 84, "unit": "%"}, {"measurement": "CFU as % of the control", "setting": "[2]; [10]", "result": 16, "unit": "%"}, {"measurement": "average colony forming units", "setting": "[2]; [10]", "result": "25×10^3 CFU/ml"}, {"measurement": "LC50 (lethal concentration required to kill 50 percent of E. coli)", "setting": "[1]", "result": 1.5, "unit": "mg/L"}, {"measurement": "Cell Death %", "setting": "[3]; 36.8 μg/ml", "result": 95, "unit": "%"}, {"measurement": "Cell Death %", "setting": "[4]", "result": 69, "unit": "%"}]}, {"molecule": "B2", "values": [{"measurement": "% of the bacteria killed", "setting": "[2]; [9]", "result": 74, "unit": "%"}, {"measurement": "CFU as % of the control", "setting": "[2]; [10]", "result": 26, "unit": "%"}, {"measurement": "average colony forming units", "setting": "[2]; [10]", "result": "42×10^3 CFU/ml"}, {"measurement": "LC50 (lethal concentration required to kill 50 percent of E. coli)", "setting": "[1]", "result": 1.0, "unit": "mg/L"}, {"measurement": "Cell Death %", "setting": "[3]; 23.0 μg/ml", "result": 99, "unit": "%"}, {"measurement": "Cell Death %", "setting": "[5]", "result": 58, "unit": "%"}]}, {"molecule": "B3", "values": [{"measurement": "inner membrane permeabilization (ONPG to ONP conversion, 415 nm)", "setting": "[6]", "result": "damage the cell membrane"}, {"measurement": "tear production", "setting": "[7]", "result": "increases tear production"}, {"measurement": "average colony forming units", "setting": "[2]; FIG. 4, 46 μg/ml, 25 mM NaCl, buffer control 77×10^3 CFU/ml", "result": "38×10^3 CFU/ml"}, {"measurement": "CFU as % of the control", "setting": "[2]; FIG. 4, 46 μg/ml, buffer control 77×10^3 CFU/ml", "result": 49, "unit": "%"}, {"measurement": "LC50 (lethal concentration required to kill 50 percent of E. coli)", "setting": "[1]", "result": 11.0, "unit": "mg/L"}, {"measurement": "cell growth", "setting": "[8]", "result": "promotes new cell growth"}]}]}
